Key:
Human VEGF-A 165 = molecular target: T1, Human VEGF-A 165 (human, UniProt P15692 207-395); assay: Biacore SPR (Example 1.1)
T1 construct: also called hVEGF165; huVEGF-A165
Method: Unreacted moieties on the biosensor surface were blocked with ethanolamine. For kinetic analysis, rate equations derived from the 1:1 Langmuir binding model were fitted simultaneously to multiple antigen injections (using global fit analysis) with the use of Scrubber 2 (BioLogic Software), Biacore Biaevaluation 4.0.1 software or Biacore T100 Evaluation software. Purified antibodies or DVD-Ig molecules were diluted in running buffer for capture across goat anti-human Fc reaction surfaces. Antibodies or DVD-Ig molecules to be captured as a ligand (1 μg/ml) were injected over reaction matrices at a flow rate of 10 μl/minute. During the assay, all measurements were referenced against the capture surface alone (i.e., with no captured antibody or DVD-Ig molecule). […] The equilibrium dissociation constant KD (M) of the reaction between antibodies and the target antigen was then calculated from the kinetic rate constants by the following formula: KD=Koff/Kₒₙ. Binding was recorded as a function of time and kinetic rate constants were calculated. In this assay, on-rates as fast as 10⁶M⁻¹s⁻¹ and off-rates as slow as 10⁻⁶ s⁻¹ could be measured. […]

VEGF-A = molecular target: T2, VEGF-A (human, UniProt P15692 207-395); assay: Biacore SPR; DVD-Ig captured on anti-human Fc, antigen injected
T2 construct: also called hVEGF165
T2 sequence (P15692 other isoform, or with tags, fused parts or gaps limits assumed): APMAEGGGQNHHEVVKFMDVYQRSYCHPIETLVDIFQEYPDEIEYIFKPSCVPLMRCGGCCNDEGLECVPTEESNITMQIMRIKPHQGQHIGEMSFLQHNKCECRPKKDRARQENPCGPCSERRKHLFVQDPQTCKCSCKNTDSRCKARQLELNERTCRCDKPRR
Method: (§1) For example, approximately 9000 RU of goat anti-human Fc specific polyclonal antibody (Thermo Fisher Scientific Inc., Rockford, Ill.) diluted in 10 mM sodium acetate (pH 4.5) is directly immobilized across a CM5 research grade biosensor chip using a standard amine coupling kit according to manufacturer's instructions and procedures at 25 μg/ml. Unreacted moieties on the biosensor surface were blocked with ethanolamine. For kinetic analysis, rate equations derived from the 1:1 Langmuir binding model were fitted simultaneously to multiple antigen injections (using global fit analysis) with the use of Scrubber 2 (BioLogic Software), Biacore Biaevaluation 4.0.1 software or Biacore T100 Evaluation software. Purified antibodies or DVD-Ig molecules were diluted in running buffer for capture across goat anti-human Fc reaction surfaces. Antibodies or DVD-Ig molecules to be captured as a ligand (1 μg/ml) were injected over reaction matrices at a flow rate of 10 μl/minute. During the assay, all measurements were referenced against the capture surface alone (i.e., with no captured antibody or DVD-Ig molecule). […] The equilibrium dissociation constant KD (M) of the reaction between antibodies and the target antigen was then calculated from the kinetic rate constants by the following formula: KD=Koff/Kₒₙ. Binding was recorded as a function of time and kinetic rate constants were calculated.

PDGF-BB = molecular target: T3, PDGF-BB (human, UniProt P01127 82-190, limits assumed); assay: as above
T3 construct: also called human PDGF-BB; hPDGF-BB
T3 sequence (P01127 82-190 limits assumed): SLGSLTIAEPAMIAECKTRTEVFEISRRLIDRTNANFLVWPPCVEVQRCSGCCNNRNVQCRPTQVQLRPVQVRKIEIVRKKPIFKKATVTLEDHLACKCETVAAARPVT
Method: as §1

T1 sequence (P15692 other isoform, or with tags, fused parts or gaps limits assumed): as the sequence (P15692 other isoform, or with tags, fused parts or gaps limits assumed) above

Kd (Human VEGF-A 165) [nM]	kon (Human VEGF-A 165) [M⁻¹ s⁻¹]	Kd (VEGF-A) [nM]	kon (VEGF-A) [M⁻¹ s⁻¹]	Kd (PDGF-BB) [nM]	kon (PDGF-BB) [M⁻¹ s⁻¹]	Binder
0.00096	7.4e+06					BEW-9A8-E2 (antibody, IgG2a, V domains shown) VH: QIQLVQSGPELKKPGESVKISCKASGYTFTNYGMYWVKQAPGQGLQYMGWINTETGKPIYADDFKGRFVFFLETSASTAYLQINNLKNEDMATFFCARVDYDGSFWFAYWGQGTLVTVSS VL: DTVLTQSPALAVSPGERVSISCRASESVSTVIHWYQQKPGQQPKLLIHGASNLESGVPARFSGSGSGTDFTLTIDPVEADDTATYFCQQHWNDPPTFGAGTKLEMK
		0.0081	6.3e+06	0.011	1.8e+07	4G8.3-LS-9E8.4 (g) (PR-1572106) (bispecific antibody, human IgG1, kappa, L234A L235A, DVD-Ig: outer hBDB-4G8.3 (VEGF), inner hBDI-9E8.4 (PDGF), linkers HG-long/LK-short; Human IgG1 L234A, L235A, H435A with kappa) heavy: EVQLVQSGSELKKPGASVKVSCKASGYTFTNYGMYWVRQAPGQGLEWMGWINTETGKPTYADDFKGRFVFSLDTSVSTAYLQISSLKAEDTAVYYCARTNYYYRSYIFYFDYWGQGTMVTVSSASTKGPSVFPLAPEVTLRESGPALVKPTQTLTLTCTFSGFSLSTYGMGVGWIRQPPGKALEWLANIWWDDDKYYNPSLKNRLTISKDTSKNQVVLTMTNMDPVDTATYYCARIESIGTTYSFDYWGQGTMVTVSSASTKGPSVFPLAPSSKSTSGGTAALGCLVKDYFPEPVTVSWNSGALTSGVHTFPAVLQSSGLYSLSSVVTVPSSSLGTQTYICNVNHKPSNTKVDKKVEPKSCDKTHTCPPCPAPEAAGGPSVFLFPPKPKDTLMISRTPEVTCVVVDVSHEDPEVKFNWYVDGVEVHNAKTKPREEQYNSTYRVVSVLTVLHQDWLNGKEYKCKVSNKALPAPIEKTISKAKGQPREPQVYTLPPSREEMTKNQVSLTCLVKGFYPSDIAVEWESNGQPENNYKTTPPVLDSDGSFFLYSKLTVDKSRWQQGNVFSCSVMHEALHNAYTQKSLSLSPGK light: DTVLTQSPATLSLSPGERATLSCRASESVSTHMHWYQQKPGQAPRLLIYGASNLESGVPARFSGSGSGTDFTLTISSLEPEDFAVYFCQQSWNDPFTFGQGTKLEIKRTVAAPEFVLTQSPGTLSLSPGERATLSCERSSGDIGDSYVSWYQQKPGQAPRLVIYADDQRPSGIPDRFSGSGSGTDFTLTISRLEPEDFAVYYCQSYDINIDIVFGGGTKVEIKRTVAAPSVFIFPPSDEQLKSGTASVVCLLNNFYPREAKVQWKVDNALQSGNSQESVTEQDSKDSTYSLSSTLTLSKADYEKHKVYACEVTHQGLSSPVTKSFNRGEC
		0.01	5.8e+06	0.014	2e+07	4G8.3-LS-9E8.4E (PR-1575835) (bispecific antibody, human IgG1, kappa, L234A L235A, DVD-Ig: outer hBDB-4G8.3 (VEGF), inner hBDI-9E8.4E (PDGF), linkers HG-long/LK-short; Human IgG1 L234A, L235A, H435A with kappa) heavy: EVQLVQSGSELKKPGASVKVSCKASGYTFTNYGMYWVRQAPGQGLEWMGWINTETGKPTYADDFKGRFVFSLDTSVSTAYLQISSLKAEDTAVYYCARTNYYYRSYIFYFDYWGQGTMVTVSSASTKGPSVFPLAPEVTLRESGPALVKPTQTLTLTCTFSGFSLSTYGMGVGWIRQPPGKALEWLANIWWDDDKYYNPSLKNRLTISKDTSKNQVVLTMTNMDPVDTATYYCARIESIGTTYSFDYWGQGTMVTVSSASTKGPSVFPLAPSSKSTSGGTAALGCLVKDYFPEPVTVSWNSGALTSGVHTFPAVLQSSGLYSLSSVVTVPSSSLGTQTYICNVNHKPSNTKVDKKVEPKSCDKTHTCPPCPAPEAAGGPSVFLFPPKPKDTLMISRTPEVTCVVVDVSHEDPEVKFNWYVDGVEVHNAKTKPREEQYNSTYRVVSVLTVLHQDWLNGKEYKCKVSNKALPAPIEKTISKAKGQPREPQVYTLPPSREEMTKNQVSLTCLVKGFYPSDIAVEWESNGQPENNYKTTPPVLDSDGSFFLYSKLTVDKSRWQQGNVFSCSVMHEALHNAYTQKSLSLSPGK light: DTVLTQSPATLSLSPGERATLSCRASESVSTHMHWYQQKPGQAPRLLIYGASNLESGVPARFSGSGSGTDFTLTISSLEPEDFAVYFCQQSWNDPFTFGQGTKLEIKRTVAAPEFVLTQSPGTLSLSPGERATLSCERSSGDIGESYVSWYQQKPGQAPRLVIYADDQRPSGIPDRFSGSGSGTDFTLTISRLEPEDFAVYYCQSYDINIDIVFGGGTKVEIKRTVAAPSVFIFPPSDEQLKSGTASVVCLLNNFYPREAKVQWKVDNALQSGNSQESVTEQDSKDSTYSLSSTLTLSKADYEKHKVYACEVTHQGLSSPVTKSFNRGEC
0.017	6.9e+06					BEW-8E6-E4 (antibody, IgG2a, V domains shown) VH: QIQLVQSGPELKKPGESVKISCKASGYTFTDYAMHWVKQAPGKVLKWMGWINTFTGKPTYIDDFKGRFVFSLEASASTANLQISDLKNEDTATYFCARGNYYSGYWYFDFWGPGTMVTMSS VL: DIQMTQSPASLSASLGETISIECRASEDISSNLAWYQQKSGKSPQLLIFAANRLQDGVPSRFSGSGSGTQFSLKISGMQPEDEGDYFCLQGSKFYTFGAGTKLELK

Source: patent US20170015742A1 (published 2017)
